Test results reported in article PMC11024467.

Target: IL-2Rα (UniProt P01589)
Assay: SPR; Biacore, IL-2 receptor proteins immobilised on a CM5 chip; wild-type IL-2 or variant 012 flowed over at stepwise concentrations for 120 s, then blank solution; 1:1 binding fit (steady state affinity for 001 on IL-2Rα)

Sequence of IL-2Rα (P01589 22-272): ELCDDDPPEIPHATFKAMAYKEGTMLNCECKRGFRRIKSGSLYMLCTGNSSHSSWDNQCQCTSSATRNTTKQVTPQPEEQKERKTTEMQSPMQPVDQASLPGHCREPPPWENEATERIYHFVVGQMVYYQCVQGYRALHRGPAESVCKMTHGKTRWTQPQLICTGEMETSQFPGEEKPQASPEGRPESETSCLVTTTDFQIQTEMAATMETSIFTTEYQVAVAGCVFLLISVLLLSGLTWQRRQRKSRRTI

Kd: 47.5 nM
Substance: wild-type IL-2 (001) (ligand)
